The results in this text go back to US20190077860A1 (EISAI R AND D MANAGEMENT, published 2019).

Experiment [1] addresses T1, mouse EphA4 extracellular region-SEAP-His protein (mouse). Put plainly: competition ELISA, competitor biotinylated mouse Ephrin B2-Fc; alternative value in brackets. The method, then: Antibody A-Fab and antibody A-F(ab′)₂ obtained in Example 5 were evaluated for their inhibitory activity against the binding between EphA4 and its ligand according to the following steps. Each well of a 96-well plate (Nunc) was coated with an anti-alkaline phosphatase antibody (Thermo Fisher Scientific). After incubation overnight at 4° C., each well was blocked with 1% BlockAce (DS Pharma Biomedical) at room temperature for 1 hour. After washing with 0.05% Tween 20/PBS (Thermo Fisher Scientific) three times, the mouse EphA4 extracellular region-SEAP-His protein obtained by the method of Example 1 was added (final concentration: 10 nM) to each well and incubated at room temperature for 1 hour. After washing three times, a ligand and serially diluted antibody A (0, 0.003, 0.01, 0.03, 0.1, 0.3, 1, 3, 10, 30, 100, 300, 1000, and 3000 nM), antibody A-Fab (0, 0.003, 0.01, 0.03, 0.1, 0.3, 1, 3, 10, 30, 100, 300, 1000, and 3000 nM), antibody A-F(ab′)₂ (0, 0.003, 0.01, 0.03, 0.1, 0.3, 1, 3, 10, 30, 100, 300, 1000, and 3000 nM), or the EphA4 inhibitor KYL peptide ([…], 0, 0.0003, 0.001, 0.003, 0.01, 0.03, 0.1, 0.3, 1, 3, 10, 30, 100, 300, 1000, and 3000 μM, its synthesis was outsourced to Toray Research Center) were added to each well. […] The absorbance at 450 nm was read using a microplate reader (Molecular Devices or PerkinElmer). […]
Background: An ELISA detects its analyte on a solid surface through an enzyme-linked reagent.

In experiment [2] the target is T1, mouse EphA4 extracellular …. Put plainly: SPR (Biacore T200), mouse EphA4 extracellular region-SEAP-His captured on an anti-His antibody CM5 chip, antibody as analyte at 0.6-50 nM, 1:1 fit. The method, then: (§1) Next, the binding affinity of antibody A-Fab and antibody A-F(ab′)₂ for mouse and human EphA4 was determined by surface plasmon resonance (SPR) using Biacore T200 (GE Healthcare). Antibody A obtained in Example 1 was used as a control for the comparison of each fragment. First, an anti-His tag antibody was immobilized on sensor chip CM5. The immobilization of the anti-His tag antibody on sensor chip CM5 was performed by the amine coupling method using N-hydroxysuccinimide (NHS) and N-ethyl-N′-(3-dimethylaminopropyl)carbodiimide hydrochloride (EDC). Ethanolamine was used in blocking (the sensor chip and the reagents for immobilization were all manufactured by GE Healthcare). The antibody was diluted with a buffer solution for immobilization (10 mM sodium acetate, pH 4.5) into 3 μg/mL and immobilized on the sensor chip according to the protocol attached to Biacore T200.
(§2) Mouse or human EphA4 extracellular region-SEAP-His protein was diluted with a running buffer solution HBS-EP (GE Healthcare, BR-1001-88), injected onto a flow cell for 120 seconds, and captured (amount of the protein captured: approximately 10 to 20 RU). Subsequently, antibody A (50, 16.7, 5.6, 1.9, 0.6, and 0 nM), antibody A-Fab (500, 166.7, 55.6, 18.5, 6.2, and 0 nM), or antibody A-F(ab′)₂ (50, 16.7, 5.6, 1.9, 0.6, and 0 nM) serially diluted using HBS-EP was added to the sensor chip for 120 seconds. Binding reaction curves were sequentially observed at the time of the addition (association phase, for 120 sec) and after the completion of the addition (dissociation phase, for 900 sec). After the completion of each observation, the sensor chip was regenerated by the addition of 3 M MgCl₂ (Wako Pure Chemical Industries) (for 30 sec). The obtained binding reaction curves were subjected to fitting analysis with 1:1 binding models using software BIA evaluation attached to the system to calculate the binding affinity (KD=kd/ka) for mouse and human EphA4.
(In SPR one partner is held on a chip, and binding of the other changes the refractive index at the surface.)

Experiment [3] has as its target T2, human EphA4 extracellular region-SEAP-His protein (human, UniProt P54764 20-547).
T2 construct: also called hEphA4-SEAP-His
Description: SPR (Biacore T200), human EphA4 extracellular region-SEAP-His captured on an anti-His antibody CM5 chip, antibody as analyte at 0.6-50 nM, 1:1 fit. The method, then:
as §1, §2

T1 sequence (chain, as listed by the source limits assumed): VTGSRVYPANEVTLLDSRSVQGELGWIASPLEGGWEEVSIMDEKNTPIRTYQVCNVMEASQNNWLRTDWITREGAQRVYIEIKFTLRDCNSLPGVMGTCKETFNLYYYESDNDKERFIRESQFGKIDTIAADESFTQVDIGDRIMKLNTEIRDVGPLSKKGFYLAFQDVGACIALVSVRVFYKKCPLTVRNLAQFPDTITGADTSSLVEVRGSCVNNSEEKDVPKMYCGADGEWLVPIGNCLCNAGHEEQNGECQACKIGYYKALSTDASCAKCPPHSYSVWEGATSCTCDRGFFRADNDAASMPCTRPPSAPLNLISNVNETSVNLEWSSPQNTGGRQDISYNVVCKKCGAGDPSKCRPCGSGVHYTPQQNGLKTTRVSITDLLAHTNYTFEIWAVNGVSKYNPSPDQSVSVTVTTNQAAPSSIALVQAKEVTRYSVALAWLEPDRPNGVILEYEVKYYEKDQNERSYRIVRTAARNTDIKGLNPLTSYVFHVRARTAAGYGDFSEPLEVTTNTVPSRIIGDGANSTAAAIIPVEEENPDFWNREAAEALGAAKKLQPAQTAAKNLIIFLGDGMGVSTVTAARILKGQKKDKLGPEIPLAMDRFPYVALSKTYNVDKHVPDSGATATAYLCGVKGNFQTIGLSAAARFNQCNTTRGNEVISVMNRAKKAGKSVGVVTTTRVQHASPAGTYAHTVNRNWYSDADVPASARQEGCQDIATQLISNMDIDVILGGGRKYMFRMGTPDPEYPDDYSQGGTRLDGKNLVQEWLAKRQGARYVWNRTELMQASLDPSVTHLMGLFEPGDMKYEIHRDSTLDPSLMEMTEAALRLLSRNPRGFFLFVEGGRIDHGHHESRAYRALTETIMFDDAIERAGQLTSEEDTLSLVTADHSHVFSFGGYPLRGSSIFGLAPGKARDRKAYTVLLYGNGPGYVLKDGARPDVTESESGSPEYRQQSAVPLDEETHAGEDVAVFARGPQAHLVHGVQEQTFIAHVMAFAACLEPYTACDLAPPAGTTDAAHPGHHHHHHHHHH
T2 sequence (P54764 20-547): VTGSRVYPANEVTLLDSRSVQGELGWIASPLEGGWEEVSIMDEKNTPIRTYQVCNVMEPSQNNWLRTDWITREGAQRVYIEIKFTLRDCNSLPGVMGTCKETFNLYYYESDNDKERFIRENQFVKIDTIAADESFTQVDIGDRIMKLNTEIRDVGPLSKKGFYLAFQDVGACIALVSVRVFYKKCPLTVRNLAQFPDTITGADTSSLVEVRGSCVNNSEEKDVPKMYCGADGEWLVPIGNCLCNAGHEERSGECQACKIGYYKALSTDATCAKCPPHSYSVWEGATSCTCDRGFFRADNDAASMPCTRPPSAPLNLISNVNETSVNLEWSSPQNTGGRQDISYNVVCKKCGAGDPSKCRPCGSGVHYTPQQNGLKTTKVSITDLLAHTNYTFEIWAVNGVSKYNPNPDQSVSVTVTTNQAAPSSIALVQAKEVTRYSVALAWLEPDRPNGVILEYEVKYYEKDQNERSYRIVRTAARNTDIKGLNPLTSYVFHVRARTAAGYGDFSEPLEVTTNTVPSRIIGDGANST

B1: antibody A (antibody, mouse IgG1, kappa, V domains shown)
VH: QIQLVQSGPELKKPGETVKISCKASGYTFTDYSMHWVKQAPGKGLKWMGWINTETGEPTYADDFKGRFAFSLETSASTAYLQINNLKNEDTATYFCARIPLYYYGSRYWYFDVWGAGTTVTVSS
VL: DIQMTQSPASLSVSVGETVTITCRASENIYRNLAWYQQKQGKSPQLLVYAATNLADGVPSRFSGSGSGTQYSLKINSLQSEDFGSYYCQHFWGTPWTFGGGTKLEIKR
notes: mouse IgG1 heavy chain, kappa light chain; purified from hybridoma supernatant; also called anti-EphA4 monoclonal antibody; antibody A-IgG
As for B1, the IC50 in experiment [1] worked out at 3.6 nM. Moreover, in experiment [2], binding was put at a Kd of 0.147 nM, the koff amounted to 0.000423 s⁻¹ and the kon was determined as 2.88e+06 M⁻¹ s⁻¹. In experiment [3], this molecule gave a Kd of 0.144 nM, a koff of 0.000389 s⁻¹ and a kon of 2.7e+06 M⁻¹ s⁻¹.

The IC50 is the midpoint of a concentration-inhibition curve. A higher IC50 goes with weaker potency. In general, Kd refers to a measure of binding affinity in units of concentration. Read a high Kd as weaker binding. As usually defined, the koff is the first-order rate constant of dissociation. A higher koff goes with fast dissociation. The kon is the second-order rate constant of association. High values mean fast association, low ones slow association.
